According to the supplement of paper PMC10567573:

B1: ZNF263 (parent)
chain: QRTHTGEKPYKCPECGEIFAHSSN

Variants of: B1
Assay: protein stability index of a GFP-peptide fusion (GPS, HEK-293T) (PSI 1-6); higher = more stable
Conditions: c terminus: a fixed tail appended
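Further: lentivirally expressed fusions sorted by FACS into six bins by GFP to DsRed ratio, PSI derived from sequencing read proportions per bin multiplied by bin number.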

Protein stability index of substitutions, site by site:
G6: K 3.18 | Y 2.64 | S 3.38 | V 2.79 | C 4.26 | P 3.23 | T 3.34 | E 3.71 | F 2.79 | H 3.33 | M 3.04 | A 3.27 | D 3.23 | W 2.74 | N 2.85 | R 2.51 | Q 3.49 | I 2.98 | L 3.27
K8: A 3.31 | T 3.28 | M 3.4 | H 3.35 | Q 3.38 | R 3.74 | G 3.81 | W 3.3 | P 3.4 | C 5.15 | E 3.82 | Y 3.34 | F 2.89 | V 3 | L 3.41 | S 3.36 | I 2.66 | D 3.3 | N 3.46
K11: I 3.1 | A 3.56 | S 3.83 | C 3.62 | L 3.39 | F 3.23 | R 3.23 | E 3.99 | M 2.97 | Q 3.13 | G 3.54 | H 3.39 | Y 3.03 | N 3.52 | W 3.23 | P 4.12 | T 2.98 | D 4.28 | V 3.17
T5: C 3.81 | K 3 | G 3.41 | E 2.89 | I 3.03 | N 3.57 | P 2.74 | M 3.09 | H 3.75 | S 3.21 | F 2.92 | V 3.06 | W 2.33 | Q 3.65 | D 3.6 | L 2.99 | A 3.25 | R 2.27 | Y 3.11
P9: R 3.94 | V 3.5 | H 3.78 | K 3.62 | G 3.58 | Q 3.25 | E 3.26 | Y 2.99 | N 3.58 | L 3.65 | M 3.12 | C 3.53 | I 2.83 | T 3.43 | F 3.22 | S 3.59 | D 3.68 | A 3.52 | W 2.74
Y10: D 4.31 | C 4.75 | V 3.93 | I 3.59 | M 3.66 | W 3.46 | Q 3.5 | E 4.04 | F 3.25 | N 4.17 | L 3.55 | K 3.93 | G 3.48 | A 3.4 | S 3.98 | T 4.55 | P 4.31 | H 3.7 | R 3.79
P13: C 3.1 | I 3.57 | A 3.78 | F 2.52 | E 4.69 | H 3.39 | G 3.71 | D 4.34 | K 3.59
C12: W 3.62 | K 4.26 | G 3.98 | I 3.6 | S 4.52 | L 3.77 | P 4.42 | A 4.27 | Y 4.3 | E 4.53 | V 3.31 | T 4.57 | D 5.18 | R 4.2 | Q 4.35 | M 4.35 | N 4.45 | H 4.13 | F 4.12
H4: R 3.58 | W 3.08 | S 3.7 | T 3.02 | Y 2.77 | V 2.85
E7: Y 2.36 | R 2.33 | G 3 | Q 3.16 | W 2.03 | C 3.93 | S 3.05 | A 2.65 | P 3.42 | T 3.01 | L 2.49 | I 2.62 | F 2.71 | V 2.35 | K 3.29 | M 3.4 | N 2.72 | D 3.08 | H 3.44
